This data set can be described thus: protein stability index of a GFP-peptide fusion (GPS, HEK-293T) (PSI 1-6); higher = more stable.
The mark [1] stands for this setting: treatment: DMSO, c terminus: a fixed tail appended.
Where [2] appears, read: treatment: MLN4924 1 uM, 8 h, c terminus: a fixed tail appended.

± gives the standard deviation.

This passage reports protein stability index results from the supplement of paper PMC10567573.
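Further: 24-mer peptide tiles fused after GFP, lentivirally expressed, FACS-sorted into six equal bins by GFP/DsRed ratio, decoded by Illumina sequencing, PSI is the read-weighted mean bin number.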

As for PSELRDLVTQQLPHLMPSNCGLEE [S100A14], the protein stability index reads like this: under setting [1], 2.71 ± 0.22; under setting [2], 3.02 ± 0.18.

NLKTLDSKPGVYTSYKPYLNRDEE [DENND6A]: the protein stability index is, setting by setting: under setting [1], 3.6 ± 0.56; under setting [2], 3.63 ± 0.38.

Consider LFSKWFSESGKLVTKMFQKIQDLI [TRIP13], for which the protein stability index worked out at 2.98 ± 0.52 under setting [1] and 2.49 ± 0.39 under setting [2].

Turning to MDADMDYERPNVETIKCVVVGDNA [RHOBTB1], the protein stability index runs as follows: under setting [1], 4.8 ± 0.1; under setting [2], 4.83 ± 0.14.

As to REIARYLLEQGAQVNRRSAKGNTA [FEM1A], the protein stability index turned out to be 3.29 ± 0.12 under setting [1] and 3.54 ± 0.31 under setting [2].

QLEEGLKDTDLARVRRFQVVEVTK [M1AP] displayed a protein stability index under setting [1] of 4.06 ± 0.15 and a protein stability index under setting [2] of 4.04 ± 0.32.

For the sequence DVLAHQVPNAKKLRRKEQLWEKLA [NOP53], the protein stability index is 2.84 ± 0.36 under setting [1] and 3.09 ± 0.29 under setting [2].

LLWAKFTNSDTPTSFNHMDSDKLS [TOR1AIP2]: the protein stability index runs as follows: under setting [1], 2.45 ± 0.3; under setting [2], 2.54 ± 0.35.

For ESKGCFANTTPSGKSVSSSSSVET [SPATS1], the protein stability index by setting is: under setting [1], 5.18 ± 0.14; under setting [2], 5.19 ± 0.12.

Consider ISEHEHFTDFNATSALFWEQHDLV [CLPTM1], for which the protein stability index by setting is: under setting [1], 3.33 ± 0.27; under setting [2], 3.38 ± 0.35.

For GKRYCRGKVLGKGGFAKCYEMTDL [PLK2], the protein stability index was found to be 2.79 ± 0.35 under setting [1] and 2.92 ± 0.27 under setting [2].

The sequence SCRRKQEDDRDGLLAEREQEEAIA [TMEM106C] had a protein stability index under setting [1] of 5.45 ± 0.33 and a protein stability index under setting [2] of 5.42 ± 0.091.

RQVKHYRIFRLPNNWYYISPRLTF [SLA]: the protein stability index runs as follows: under setting [1], 2.43 ± 0.52; under setting [2], 2.14 ± 0.069.

Consider MAFFLCLGLALGAVFSFLFRAIV [SLC29A1], for which the protein stability index is, setting by setting: (treatment: DMSO, c terminus: native) 4.33 ± 0.19; (treatment: MLN4924 1 uM, 8 h, c terminus: native) 4.14 ± 0.24.

Sequence LSQRVMCNDLFKVNPFQLQQFRAD [TIAF1] yielded a protein stability index under setting [1] of 2.48 ± 0.18 and a protein stability index under setting [2] of 2.5 ± 0.32.

As to ACLLQLAEIQEACCEFLKRQLDPS [KLHL20], the protein stability index runs as follows: under setting [1], 2.32 ± 0.58; under setting [2], 2.16 ± 0.053.

Consider QLCGKTFLTLEKFTIHNYSHSRER [PLAGL1], for which the protein stability index by setting is: under setting [1], 2.15 ± 0.57; under setting [2], 2.27 ± 0.27.

As for LESEDWEEDNWDPELMEHTEAESE [TEX19], the protein stability index by setting is: under setting [1], 5.59 ± 0.29; under setting [2], 5.53 ± 0.32.

Consider GVDHTKMSLHGASGGHERSRDRRR [BTBD10], for which the protein stability index reads like this: under setting [1], 5.26 ± 0.27; under setting [2], 5.3 ± 0.24.

NITRIYNIGKSHQGLKLYAVEISD [CPXM2]: the protein stability index under setting [1] was determined as 2.34 ± 0.43 and the protein stability index under setting [2] was 2.31 ± 0.14.

On to RNARIVHLVEETRIHVLPSLNPDG [CPXM2], for which the protein stability index under setting [1] was determined as 2.97 ± 0.037 and the protein stability index under setting [2] stood at 3.2 ± 0.24.

Turning to FGIGSEILKNLSQVAMRCRCSSMH [SAT1], the protein stability index under setting [1] is 2.56 ± 0.58 and the protein stability index under setting [2] is 2.45 ± 0.48.

Consider TEMIITKAGRRMFPACRVSVTGLD [TBX6], for which the protein stability index runs as follows: under setting [1], 2.31 ± 0.3; under setting [2], 2.2 ± 0.22.

Consider LPSPVQACSEDSLFLRCSLRHKDE [DRICH1], for which the protein stability index runs as follows: under setting [1], 4.31 ± 0.15; under setting [2], 4.48 ± 0.2.

With VEECQAALQNKDTYEPFCKVPVIT [KCTD10], the protein stability index by setting is: under setting [1], 4.06 ± 0.15; under setting [2], 4.12 ± 0.3.

As to LLSFLLLMDYIGINLATMNSCINP [EDNRA], the protein stability index runs as follows: under setting [1], 2.58 ± 0.73; under setting [2], 4.18 ± 0.46.

With IANPNSLHHVKTMWYPEIKHFCPR [RHOBTB2], the protein stability index was determined as 2.36 ± 0.25 under setting [1] and 2.64 ± 0.2 under setting [2].

FHLAPARAGHHPNQYATCRLCGRQ [ZBED2]: the protein stability index was 2.58 ± 0.41 under setting [1] and 3.14 ± 0.68 under setting [2].

Take TIPATLLVDHVGSKTFLCIGSSVM [SLC2A12]: the protein stability index is, setting by setting: under setting [1], 2.69 ± 0.5; under setting [2], 2.34 ± 0.44.

In the case of RKLLSPVSREENREDKATIKCETS [PPFIA4], the protein stability index is, setting by setting: under setting [1], 5.11 ± 0.27; under setting [2], 5.14 ± 0.26.

As to MLERIKHEKTVDIYGHVTLMRAQR [PTPRD], the protein stability index under setting [1] came out at 1.73 ± 0.22 and the protein stability index under setting [2] was 2.16 ± 0.38.

NSDLNNLLFCCQCVDVVFYNPDLK [RHOBTB3]: the protein stability index reads like this: under setting [1], 2.28 ± 0.99; under setting [2], 2.59 ± 0.6.

Turning to RIFDIKDGKLLWEQELYNNFVYNS [WASL], the protein stability index runs as follows: under setting [1], 2.15 ± 0.67; under setting [2], 2.13 ± 0.62.

As for RKKSADVLALADEAGYYFFNGNYK [ADAMTSL2], the protein stability index under setting [1] amounted to 3 ± 0.22 and the protein stability index under setting [2] worked out at 3.05 ± 0.33.

Take AGGEKGPQAFPMSRLWDSRLRHYL [DNAAF3]: the protein stability index runs as follows: under setting [1], 2.12 ± 0.077; under setting [2], 2.54 ± 0.065.

For QELNELFKPVVAAQKISKGADPKS [ZC3H15], the protein stability index reads like this: under setting [1], 4.8 ± 0.13; under setting [2], 4.92 ± 0.18.

VESSLNVKTKKNAPSATIHQGEEE [FBXO34]: the protein stability index by setting is: under setting [1], 5.37 ± 0.22; under setting [2], 5.49 ± 0.2.

Consider LINKMLTINPSKRITAAEALKHPW [CAMK2A], for which the protein stability index under setting [1] worked out at 2.16 ± 0.11 and the protein stability index under setting [2] was found to be 2.17 ± 0.18.

Turning to LVLAAVVAWCYYSVSLRKAERLRA [MYORG], the protein stability index is, setting by setting: under setting [1], 3.27 ± 0.64; under setting [2], 3.31 ± 0.33.

As to FMYNLVQFLGFSWIFVNLTVRFCI [HACD3], the protein stability index runs as follows: under setting [1], 3.58 ± 1.3; under setting [2], 2.82 ± 0.15.

Regarding SYKYTSRYVLKAGQTVTIWAANAG [LMNB1], the protein stability index was determined as 2.24 ± 0.25 under setting [1] and 1.87 ± 0.25 under setting [2].

For ICSSLQNLEKTIFCLQKLISLHPF [C8orf76], the protein stability index worked out at 3.28 ± 1 under setting [1] and 2.65 ± 0.39 under setting [2].

In the case of NESRRQIQSLTCEVDGLRGTNEAL [PRPH], the protein stability index was found to be 4.7 ± 0.29 under setting [1] and 5.11 ± 0.056 under setting [2].

As for QSFIIPLERYVASLMPLQKSISPW [DENND6A], the protein stability index is 2.25 ± 0.04 under setting [1] and 2.46 ± 0.56 under setting [2].

As for KSGAIMSALSDTEIQREIGISNAL [PPFIA4], the protein stability index came to 4.02 ± 0.36 under setting [1] and 4.13 ± 0.18 under setting [2].

As for DVNNLDPDLRSLFSRAGISEAQLT [WAS], the protein stability index amounted to 3.07 ± 0.41 under setting [1] and 3.34 ± 0.48 under setting [2].

On to APGSASSSKVSGVLKKLAQSRRTA [YJU2B], for which the protein stability index by setting is: under setting [1], 3.81 ± 0.3; under setting [2], 3.87 ± 0.34.

Regarding VVLCFSIANPNSLHHVKTMWYPEI [RHOBTB2], the protein stability index worked out at 3.23 ± 0.42 under setting [1] and 3.16 ± 0.21 under setting [2].

On to VGLNTIADLWYLFGDLSLSLVTVG [POMT2], for which the protein stability index came out at 3.71 ± 0.08 under setting [1] and 3.16 ± 0.79 under setting [2].

With EEVDQMFQFASIDVAGNLDYKALS [MYL5], the protein stability index by setting is: under setting [1], 4.27 ± 0.3; under setting [2], 4.39 ± 0.27.

As for SEMAEDLCKIGSERSLVLDRLASN [IKZF1], the protein stability index runs as follows: under setting [1], 4.56 ± 0.38; under setting [2], 4.73 ± 0.2.

AWKHGNIHLSAPCIYSEVMEALKL [PCMTD1]: the protein stability index runs as follows: under setting [1], 2.28 ± 0.34; under setting [2], 2.14 ± 0.33.

With DRVLQWERIDCQGIPPSSKDKLGV [KLHDC2], the protein stability index is, setting by setting: under setting [1], 4.14 ± 0.36; under setting [2], 3.99 ± 0.07.

RSTCVYVCALSALPAGPLPAPLLV [PLEKHN1]: the protein stability index is, setting by setting: under setting [1], 3.18 ± 1.1; under setting [2], 2.88 ± 0.71.

As to TAIKSIEFARKGSCFLINTADRII [RBBP5], the protein stability index is, setting by setting: under setting [1], 2.6 ± 0.22; under setting [2], 2.75 ± 0.78.

As to EEKQASLWVQGDIFRSKLKNRPSS [CDC14A], the protein stability index amounted to 3.89 ± 0.049 under setting [1] and 4 ± 0.25 under setting [2].

In turn, LDCEGTTNKMKSPETKQRKLSPLR [KMT2E] came in with a protein stability index under setting [1] of 5.39 ± 0.22 and a protein stability index under setting [2] of 5.05 ± 0.37.

PEEPLNGESYESCCPTSREAAVEA [FEM1A]: the protein stability index came out at 5.37 ± 0.18 under setting [1] and 5.28 ± 0.31 under setting [2].

Turning to GGAEMRTQHWPIRLDGQQEPQPFV [MYORG], the protein stability index by setting is: under setting [1], 3.86 ± 0.27; under setting [2], 3.85 ± 0.13.

As to VETSAKNAININELFIEISRRIPS [RAB22A], the protein stability index came to 2.34 ± 0.21 under setting [1] and 2.29 ± 0.52 under setting [2].

EKNLLLQNQVDELERKFRCQQEQL [LRRC45] returned a protein stability index under setting [1] of 4.27 ± 0.31 and a protein stability index under setting [2] of 4.34 ± 0.23.

Consider TPSNFQHIGHVGWDPNTGFDLNNL [WASL], for which the protein stability index under setting [1] was found to be 3.24 ± 0.3 and the protein stability index under setting [2] was found to be 3.47 ± 0.4.

For QPPLTYKRFQTLISKMEPLEIPVE [CRY1], the protein stability index reads like this: under setting [1], 2.97 ± 0.39; under setting [2], 2.79 ± 0.34.

As to LSINRYERKKNLTLALEALVQLRG [ALG2], the protein stability index by setting is: under setting [1], 2.25 ± 0.36; under setting [2], 2.09 ± 0.2.

On to GWCIFVYNLSPEADESVLWQLFGP [ELAVL3], for which the protein stability index reads like this: under setting [1], 2.8 ± 1.4; under setting [2], 3.7 ± 1.2.

As to PAHLYFQAHGSEGLTFQGLLPLTE [PLEKHN1], the protein stability index stood at 2.85 ± 0.045 under setting [1] and 2.9 ± 0.083 under setting [2].

Regarding NVEAQLSEIRCDLERQNQEYQVLL [KRT36], the protein stability index amounted to 3.58 ± 0.29 under setting [1] and 3.53 ± 0.21 under setting [2].

As for DGIRGKVGHARGLHAWQINWPARQ [SPSB4], the protein stability index runs as follows: under setting [1], 2.8 ± 0.19; under setting [2], 2.67 ± 0.31.

Take EKEKAEIEAKEACDWLRATGFPQY [DLC1]: the protein stability index runs as follows: under setting [1], 4.02 ± 0.24; under setting [2], 4.09 ± 0.24.

Consider KVLLDCGADPDSRDFDNNTPLHIA [FEM1A], for which the protein stability index reads like this: under setting [1], 4.02 ± 0.17; under setting [2], 4.07 ± 0.15.

Turning to KSRLSSVSVTYCSVSQDFPGSNLN [ETS2], the protein stability index under setting [1] stood at 2.62 ± 0.26 and the protein stability index under setting [2] was 2.64 ± 0.18.

SNAMLVGDKLKFLSMLLTLKCEMN [ACSBG2]: the protein stability index was determined as 2.66 ± 0.62 under setting [1] and 2.52 ± 0.052 under setting [2].
